Reference: patent publication US20110300138A1 (published 2011)
One block for each molecule: values may come before it.

Experiments:
[1] = target: TSHR (full length) coated on tubes (human) (UniProt P16473); assay: inhibition of 125I-K1-18 Fab (competitor) binding to TSHR coated tubes; test sample 100 µg/mL in HBD serum
[2] = target: TSHR (full length) coated on tubes (human) (UniProt P16473); assay: inhibition of 125I-K1-18 Fab (competitor) binding to TSHR coated tubes; test sample 0.01 µg/mL in HBD serum
[3] = target: TSH receptor (full length human TSHR) coated on tubes (human) (UniProt P16473); assay: 125I-TSH binding inhibition read against NIBSC 90/672; 100 ng/mL, in serum
[4] = target: wild type TSHR (human TSH receptor) expressed in CHO cells (human) (UniProt P16473); assay: cell-based or functional assay
[5] = target: TSH receptor (TSHR), full length human, coated on tubes (human) (UniProt P16473); assay: inhibition of 125I-TSH binding to TSHR coated tubes; 100 µg/mL, diluted in assay buffer
[6] = target: TSH receptor (TSHR), full length human, coated on tubes (human) (UniProt P16473); assay: inhibition of 125I-TSH binding to TSHR coated tubes; 100 µg/mL, diluted in HBD serum pool
[7] = target: human TSH receptor (full length) coated on ELISA plate wells (human) (UniProt P16473); assay: TSH-biotin binding inhibition ELISA, TSHR coated wells; 1 µg/mL in assay buffer; negative control MAb
[8] = target: TSH receptor (TSHR) coated on tubes (human) (UniProt P16473); assay: inhibition of 125I-K1-70 IgG binding to TSHR coated tubes; negative control 100 µg/mL in assay buffer
[9] = target: human thyroid stimulating hormone receptor (TSHR), full length (human) (UniProt P16473); assay: 125I-K1-70 Fab (competitor) binding to TSHR coated tubes; negative control MAb 0.01 µg/mL in HBD serum
[10] = target: TSH receptor (TSHR) coated on tubes (human) (UniProt P16473); assay: inhibition of 125I-K1-70 IgG binding to TSHR coated tubes; negative control 0.01 µg/mL in HBD serum pool
[11] = target: human thyroid stimulating hormone receptor (TSHR), full length (human) (UniProt P16473); assay: 125I-K1-70 Fab (competitor) binding to TSHR coated tubes; negative control MAb 0.1 µg/mL in assay buffer
[12] = target: human TSH receptor (full length) coated on ELISA plate wells (human) (UniProt P16473); assay: TSH-biotin binding inhibition ELISA, TSHR coated wells; 100 µg/mL in HBD serum pool; negative control MAb
[13] = target: TSH receptor (TSHR) coated on tubes (human) (UniProt P16473); assay: inhibition of 125I-K1-70 IgG binding to TSHR coated tubes; negative control 0.001 µg/mL in HBD serum pool
[14] = target: human thyroid stimulating hormone receptor (TSHR), full length (human) (UniProt P16473); assay: 125I-K1-70 Fab (competitor) binding to TSHR coated tubes; negative control MAb 0.01 µg/mL in assay buffer
[15] = target: TSH receptor (TSHR), full length human, coated on tubes (human) (UniProt P16473); assay: inhibition of 125I-TSH binding to TSHR coated tubes; 0.01 µg/mL, diluted in assay buffer; mean of duplicates
[16] = target: TSHR (full length) coated on tubes (human) (UniProt P16473); assay: inhibition of 125I-K1-18 Fab (competitor) binding to TSHR coated tubes; negative control 100 µg/mL in HBD serum
[17] = target: human TSH receptor (full length) coated on ELISA plate wells (human) (UniProt P16473); assay: TSH-biotin binding inhibition ELISA, TSHR coated wells; 0.1 µg/mL in assay buffer + 100 µg/mL 5B3 IgG; negative control MAb
[18] = target: TSH receptor (TSHR), full length human, coated on tubes (human) (UniProt P16473); assay: inhibition of 125I-K1-18 IgG binding to TSHR coated tubes; competitor 125I-K1-18 IgG; negative control sample at 1 µg/mL in HBD serum
[19] = target: TSH receptor (TSHR), full length human, coated on tubes (human) (UniProt P16473); assay: inhibition of 125I-K1-18 IgG binding to TSHR coated tubes; competitor 125I-K1-18 IgG; negative control sample at 100 µg/mL in assay buffer
[20] = target: TSH receptor (full length human TSHR) (human) (UniProt P16473); assay: competition ELISA: inhibition of M22 Fab-peroxidase (competitor) binding to TSHR coated wells; negative control at 100 µg/mL diluted in assay buffer
[21] = target: TSH receptor (full length human TSHR) (human) (UniProt P16473); assay: competition ELISA: inhibition of M22 Fab-peroxidase (competitor) binding to TSHR coated wells; negative control at 0.1 µg/mL diluted in HBD serum pool
[22] = target: TSH receptor (TSHR), full length human, coated on tubes (human) (UniProt P16473); assay: inhibition of 125I-TSH binding to TSHR coated tubes; 1 µg/mL, diluted in HBD serum pool
[23] = target: TSH receptor (TSHR), full length human, coated on tubes (human) (UniProt P16473); assay: inhibition of 125I-TSH binding to TSHR coated tubes; 10 µg/mL, diluted in HBD serum pool
[24] = target: thyroid stimulating hormone receptor (full length human TSHR) (human) (UniProt P16473); assay: ELISA, inhibition of TSH-biotin binding to TSHR coated wells; 0.01 µg/mL, diluted in assay buffer
[25] = target: thyroid stimulating hormone receptor (TSHR), full length, coated on tubes (human) (UniProt P16473); assay: inhibition of 125I-TSH binding, TSHR coated tubes; antibody 0.01 µg/mL in assay buffer; mean of duplicate
[26] = target: thyroid stimulating hormone receptor (full length human TSHR) (human) (UniProt P16473); assay: ELISA: inhibition of M22 Fab-peroxidase (competitor) binding to TSHR coated wells; 1 µg/mL, diluted in HBD serum pool

Inhibition of binding (%) [1]: 77.3%
Inhibition of binding (%) [2]: 2.3%
Molecule: 9D33 IgG (antibody)

units/L [3]: 9.9 units/L
units/mg [3]: 99 units/mg
Molecule: M22 IgG (antibody)

Cyclic AMP produced, wild type TSHR, TSH 0.01 ng/mL [4]: 2.74 pmol/mL
Cyclic AMP produced, wild type TSHR, TSH 0.03 ng/mL [4]: 4.24 pmol/mL
Cyclic AMP produced, wild type TSHR, TSH 0.1 ng/mL [4]: 9.39 pmol/mL
Cyclic AMP produced, wild type TSHR, TSH 0.3 ng/mL [4]: 39.6 pmol/mL
Cyclic AMP produced, wild type TSHR, TSH 1 ng/mL [4]: 61.2 pmol/mL
Cyclic AMP produced, wild type TSHR, TSH 3 ng/mL [4]: 70.6 pmol/mL
Molecule: TSH (ligand)

Inhibition of binding (%) [5]: 22.4%
Inhibition of binding (%) [6]: -3.9%
% inhibition of TSH-biotin binding [7]: -1%
Inhibition of binding (%) [8]: 15.2%
Inhibition of binding (%) [9]: -5.3%
Inhibition of binding (%) [10]: 3.2%
Inhibition of binding (%) [11]: 2.2%
% inhibition of TSH-biotin binding [12]: 10.9%
Inhibition of binding (%) [13]: 3.7%
Inhibition of binding (%) [14]: -1.7%
Inhibition of binding (%) [15]: -5.8%
Inhibition of binding (%) [16]: -1.1%
% inhibition of TSH-biotin binding [17]: -6.4%
Inhibition of binding (%) [18]: -6.2%
Inhibition of binding (%) [19]: 6.7%
Inhibition of binding (%) [20]: 8.1%
Inhibition of binding (%) [21]: 3%
Molecule: 5B3 IgG (antibody)

Inhibition of binding (%) [22]: 24.8%
Inhibition of binding (%) [23]: 39.9%
Inhibition of binding (%) [24]: 7.5%
Inhibition of binding (%) [25]: 15.9%
Inhibition of binding (%) [26]: 7.8%
B1: 5C9 IgG (antibody, from another filing, V domains shown)
VH: EVQLVESGGGLIQPGGSLRLSCAASGFTVSSNYMSWVRQAPGKGLEWVSVTYSGGSTSYADSVKGRFTISRDNSKNTLYLQMNSLRAEDTAVYYCARGGRYCSSISCYARSGCDYWGQGTLVTVSS
VL: AIQMTQSPSSLSASVGDRVTITCRASQSISNYLNWYQQKPGKAPKLLIYAASSLQSGVPSRFSGSGSGTDFTLTISSLQPEDFATYYCQQSYSSPSTTFGQGTKLEIK
